Assay results: CN115368461A (JIANGSU HENGRUI MEDICINE CO; SHANGHAI HENGRUI …, dated 2022)
Where a chain is given by its changes, count along the chain named.

Columns and labels:
[1] = target: T1, TROP2 on FaDu cells (high huTROP2 expression) and SK-OV-3 cells (low TROP2 expression) (human, UniProt P09758 27-323); test: cell-based or functional assay
T1 sequence (looked up): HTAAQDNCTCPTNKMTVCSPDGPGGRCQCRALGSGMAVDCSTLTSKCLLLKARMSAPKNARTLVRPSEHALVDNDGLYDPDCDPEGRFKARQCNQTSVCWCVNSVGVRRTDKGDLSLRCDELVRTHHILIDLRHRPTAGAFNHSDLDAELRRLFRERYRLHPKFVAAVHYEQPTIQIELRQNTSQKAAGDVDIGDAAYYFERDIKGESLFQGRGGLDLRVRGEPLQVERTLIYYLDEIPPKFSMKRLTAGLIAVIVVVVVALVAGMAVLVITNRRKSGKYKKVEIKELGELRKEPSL

[2] = target: T2, 人TROP2-his (huTROP2-His), ACRO TR2-H5223 (human, UniProt P09758 27-274); test: Biacore T200 SPR; antibody captured on Protein A chip, huTROP2-his as analyte, 1:1 model
T2 construct: Bought His-tagged human TROP2 protein (ACRO)
T2 sequence: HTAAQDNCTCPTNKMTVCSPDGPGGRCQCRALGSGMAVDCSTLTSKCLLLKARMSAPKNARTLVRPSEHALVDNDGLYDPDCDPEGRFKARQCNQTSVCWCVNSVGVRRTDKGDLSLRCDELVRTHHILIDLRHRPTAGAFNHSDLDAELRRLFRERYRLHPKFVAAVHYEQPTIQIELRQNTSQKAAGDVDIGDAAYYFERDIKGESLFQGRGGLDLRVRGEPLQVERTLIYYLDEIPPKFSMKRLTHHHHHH

[3] = target: T3, CHO细胞表面表达的人TROP2 (huTROP-2 CHO-K1 cells) (human, UniProt P09758 27-323); test: cell ELISA on fixed huTROP-2 CHO-K1 cells
T3 construct: Untagged human TROP2 stably expressed on CHO-K1 cells; The cells were fixed with paraformaldehyde in the cell ELISA; also called CHO-K1/hTROP2
T3 sequence: T1 sequence (looked up)

[4] = target: T2, 人TROP2-his (huTROP2-His), ACRO TR2-H5223; test: ForteBio Octet BLI; antibody on Protein A sensor, 100nM antigen

B1: hu29-12 (antibody, human IgG1, kappa, V domains shown)
VH: EVKLVESGGGLVQPGGSLRLSCAASGFSFSDYYMYWVRQAPGKGLEWVANIDNVGDTTYYPDTVKGRFTISRDNAKNSLYLQMNSLRAEDTAVYYCARHDPLTGPPFFAMDYWGQGTTVTVSS
VL: DIQMTQSPSSLSASVGDRVTITCKASQGINQYIAWYQQKPGKGPKLLIHYTSTLQPGVPSRFSGSGSGRDYTFTISSLQPEDIATYYCLQYDNLWTFGGGTKVEIKR
notes: also called mAb29 VH4 + VL3
IC50(nM), DT3C内吞杀伤实验 on FaDu cells [1]: 0.0094 nM | Imax(%), DT3C内吞杀伤实验 on FaDu cells [1]: 100% | Kd [2]: 0.202 nM

B2: mAb29 (antibody, V domains shown)
VH: EVKLVESGGDLVQPGGSLKLSCAASGFSFSDYYMYWVRQTPEKRLEWVANIDNGGDTTYYPDTVKGRFTISRDNAKNTLYLQMSRLKSEDTAMYYCARHDPLTGPPFFAMDYWGQGTSVTVSS
VL: DIQMTQSPSSLSASLGGKVTISCKASQGINQYIAWYQLKPGKGPRLLIHYTSTLQPGVPSRFSGSGSGRDYSFSISNLEPEDIASYYCLQYDNLWTFGGGTKLEIK
notes: Murine hybridoma monoclonal antibody; the murine constant regions are not; In the cell ELISA it was detected with goat anti-mouse IgG-HRP; also called 鼠源mAb29; 鼠源抗体mAb29
binding result [3]: binds | binding result [4]: binds

B3: hRS7 (antibody, human IgG1, kappa, V domains shown)
VH: QVQLQQSGSELKKPGASVKVSCKASGYTFTNYGMNWVKQAPGQGLKWMGWINTYTGEPTYTDDFKGRFAFSLDTSVSTAYLQISSLKADDTAVYFCARGGFGSSYWYFDVWGQGSLVTVSS
VL: DIQLTQSPSSLSASVGDRVSITCKASQDVSIAVAWYQQKPGKAPKLLIYSASYRYTGVPDRFSGSGSGTDFTLTISSLQPEDFAVYYCQQHYITPLTFGAGTKVEIKR
IC50(nM), DT3C内吞杀伤实验 on FaDu cells [1]: 0.069 nM | Imax(%), DT3C内吞杀伤实验 on FaDu cells [1]: 97.7%

B4: TINA (antibody, human IgG1, kappa, V domains shown)
VH: QVQLVQSGAEVKKPGASVKVSCKASGYTFTTAGMQWVRQAPGQGLEWMGWINTHSGVPKYAEDFKGRVTISADTSTSTAYLQLSSLKSEDTAVYYCARSGFGSSYWYFDVWGQGTLVTVSS
VL: B3 VL with L4M, S20T, I31T, D60S, A100Q, V104L
notes: Control antibody built according to WO2015098099A1; also called TINA抗体; 阳性对照抗体TINA
Kd [2]: 17 nM

B5: mAb53 (antibody, V domains shown)
VH: QVQLQQPGAELVKPGASVKMSCKASGYTFTSYWITWVKQRPGQGLEWIGNIHPGSSTTNYNEKFKSKATLTVHTSSSTVYMQLTSLTSEDSAVYYCAREVGDYWGQGTSVTVSS
VL: DILLTQSPAILSVSPGERASFSCRASQIIGTSIHWYQQRTNGSPRLLIKYVSESISGIPSRFSGSGSGTDFTLSINSVESEDIADYYCQQSHSWPFTFGGGTKL
notes: Murine hybridoma monoclonal antibody; the murine constant regions are not; also called 鼠源mAb53; 鼠源抗体mAb53
binding result [3]: binds | binding result [4]: binds

B6: hu53-02 (antibody, human IgG1, kappa, V domains shown)
VH: EVQLVQSGAEVKKPGASVKVSCKASGYTFTSYWITWVRQAPGQGLEWMGNIHPGSSTTNYNEKFKSRVTMTRDTSTSTVYMELSSLRSEDTAVYYCAREVGDYWGQGTTVTVSS
VL: EIVLTQSPATLSLSPGERATLSCRASQIIGTSIHWYQQKPGQAPRLLIKYVSESISGIPARFSGSGSGTDFTLTISSLEPEDFAVYYCQQSHSWPFTFGGGTKVEIKR
notes: also called mAb53 VH1 + VL2
IC50(nM), DT3C内吞杀伤实验 on FaDu cells [1]: 0.0643 nM | Imax(%), DT3C内吞杀伤实验 on FaDu cells [1]: 97.5% | Kd [2]: 0.691 nM
